For assay [1], the target named is aggregated recombinant human α-synuclein produced by aging (amyloid fibrils) (human) (UniProt P37840). In words: ELISA, α-synuclein coated at 100 pmol/well, range of peptide concentrations.
For assay [2] the target is unchanged. The experiment in a line: ELISA, α-synuclein coated at 200 pmol/well, range of peptide concentrations.
In assay [3] the target is dopamine treated recombinant human α-synuclein (soluble aggregates, oligomers) (human) (UniProt P37840). In words: ELISA, α-synuclein coated, peptide in solution. On the technique in general: In an ELISA, binding on a coated surface is turned into a signal by an enzyme label.

In the case of “OR1, Gd-DOTA-rGtvvaGK(biotin)-rrrrrr (peptide)”, in assay [1], the lowest binding concentration detected is 10 pmol/well.

“OR2, Gd-DOTA-rGvvaGK(biotin)-rrrrrr (peptide)”: in assay [1], the lowest binding concentration detected came to 10 pmol/well.

As to “OR3, Gd-DOTA-rrrrrrGtvvaGK(biotin)-r (peptide)”, the lowest binding concentration detected in assay [2] came out at 10 pmol/well.

Regarding “OR4, Gd-DOTA-rrrrrrGvvaGK(biotin)-r (peptide)”, the lowest binding concentration detected in assay [2] is 10 pmol/well.

For “OR5, Gd-DOTA-r-Sar-vva-Sar-K(biotin)-rrrrrr (peptide)”, the lowest binding concentration detected in assay [3] was 1 pmol/well; in assay [2], 10 pmol/well.
